Laboratory results reported in patent US20120316071A1 (published 2012).
Changes are numbered by the printed parent chain. Names may count otherwise. Blank lines part the entries; values can stand above or below the binder they belong to.

Assays:
[1] = target: T1, rHuman ErbB2/Fc Chimera, CF (R&D Systems Cat#1129-ER) (human, UniProt P04626 23-652); experiment: MSD ECL multispot assay, antigen spotted on plate, Fab in solution; blank spot of this row 504
T1 construct: Bought recombinant protein; not shown: Fc of the bought chimera

[2] = target: T2, rHuman HGF R/c-MET/Fc Chimera, CF (R&D Systems Cat#358-MT/CF) (human, UniProt P08581 25-932); experiment: as above
T2 construct: Bought recombinant protein; also called HGF R/Fc; not shown: Fc of the bought chimera

[3] = target: T3, rHuman CD44/Fc Chimera, CF (R&D Systems Cat#3660-CD) (human, UniProt P16070 21-220); experiment: as above
T3 construct: Bought recombinant protein; not shown: Fc of the bought chimera

[4] = target: T4, rHuman EGF R/Fc Chimera, CF (R&D Systems Cat#344-ER) (human, UniProt P00533 25-645); experiment: as above
T4 construct: Bought recombinant protein; not shown: Fc of the bought chimera

[5] = target: T5, rHuman Erythropoietin R/Fc Chimera, CF (R&D Systems Cat#963-ER) (human, UniProt P19235 25-250); experiment: as above
T5 construct: Bought recombinant protein; also called EPO R; EPO R/Fc; not shown: Fc of the bought chimera
T5 sequence (looked up): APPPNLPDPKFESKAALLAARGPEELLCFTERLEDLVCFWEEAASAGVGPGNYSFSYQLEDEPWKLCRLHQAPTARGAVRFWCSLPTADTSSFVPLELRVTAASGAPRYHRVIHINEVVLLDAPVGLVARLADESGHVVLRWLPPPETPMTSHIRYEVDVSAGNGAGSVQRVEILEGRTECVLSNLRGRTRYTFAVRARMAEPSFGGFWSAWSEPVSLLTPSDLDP

[6] = target: T6, Recombinant Human DLL4 (R&D Systems Cat#1506-D4/CF) (human, UniProt Q9NR61 27-524); experiment: as above
T6 construct: Bought recombinant protein; also called delta-like protein 4; rHuman DLL4

[7] = target: T7, rHuman IGF-1 sR (insulin-like growth factor-1 soluble receptor), CF (R&D Systems Cat#391-GR) (human, UniProt P08069 31-932); experiment: as above
T7 construct: Bought recombinant soluble receptor

[8] = target: T8, rHuman Notch-1/Fc Chimera, CF (R&D Systems Cat#3647-TK) (human, UniProt P46531 19-526); experiment: as above
T8 construct: Bought recombinant protein; not shown: Fc of the bought chimera

[9] = target: T1, rHuman ErbB2/Fc Chimera, CF (R&D …); experiment: MSD ECL multispot assay, antigen spotted on plate, Fab in solution; blank spot of this row 348
[10] = target: T2, rHuman HGF R/c-MET/Fc Chimera, CF (R&D …); experiment: as above
[11] = target: T3, rHuman CD44/Fc Chimera, CF (R&D Systems …); experiment: as above
[12] = target: T4, rHuman EGF R/Fc Chimera, CF (R&D …); experiment: as above
[13] = target: T5, rHuman Erythropoietin R/Fc Chimera, CF …; experiment: as above
[14] = target: T6, Recombinant Human DLL4 (R&D Systems …); experiment: as above
[15] = target: T7, rHuman IGF-1 sR (insulin-like growth …); experiment: as above
[16] = target: T8, rHuman Notch-1/Fc Chimera, CF (R&D …); experiment: as above
[17] = target: T9, Recombinant Human DLL4 (R&D Systems Cat#1506-D4/CF) (human, UniProt Q9NR61 27-524); experiment: ECL Multispot (MSD) binding assay, antigen spotted on plate, Fab in solution
T9 construct: Bought recombinant human DLL4; also called delta-like protein 4; Delta-like 4

[18] = target: T10, rHuman CD44/Fc Chimera, CF (R&D Systems Cat#3660-CD) (human, UniProt P16070 21-220); experiment: as above
T10 construct: Bought recombinant Fc chimera; Fc part of the bought chimera not given

[19] = target: T11, rHuman P-Cadherin/Fc Chimera, CF (R&D Systems Cat#861-PC) (human, UniProt P22223 108-654); experiment: as above
T11 construct: Bought recombinant Fc chimera; Fc part of the bought chimera not given

[20] = target: T12, rHuman HGF R/c-MET/Fc Chimera, CF (R&D Systems Cat#358-MT/CF) (human, UniProt P08581 25-932); experiment: as above
T12 construct: Bought recombinant Fc chimera; also called HGF R/Fc; hepatocyte growth factor receptor; Fc part of the bought chimera not given

[21] = target: T13, rHuman ErbB2/Fc Chimera, CF (R&D Systems Cat#1129-ER) (human, UniProt P04626 23-652); experiment: as above
T13 construct: Bought recombinant Fc chimera; also called human epidermal growth factor 2 receptor; Fc part of the bought chimera not given

[22] = target: T14, rHuman Notch-1/Fc Chimera, CF (R&D Systems Cat#3647-TK) (human, UniProt P46531 19-526); experiment: as above
T14 construct: Bought recombinant Fc chimera; Fc part of the bought chimera not given

[23] = target: T15, rHuman IGF-1 sR, CF (R&D Systems Cat#391-GR) (human, UniProt P08069 31-932); experiment: as above
T15 construct: Bought recombinant soluble receptor; also called insulin-like growth factor-1 soluble receptor

[24] = target: T16, rHuman Erythropoietin R/Fc Chimera, CF (R&D Systems Cat#963-ER) (human, UniProt P19235 25-250); experiment: as above
T16 construct: Bought recombinant Fc chimera; also called EPO R; EPO R/Fc; Fc part of the bought chimera not given
T16 sequence (looked up): T5 sequence (looked up)

[25] = target: T17, rHuman EGF R/Fc Chimera, CF (R&D Systems Cat#344-ER) (human, UniProt P00533 25-645); experiment: as above
T17 construct: Bought recombinant Fc chimera; also called epidermal growth factor receptor; Fc part of the bought chimera not given

[26] = target: T18, rHuman CD44/Fc Chimera, CF (R&D Systems Cat#3660-CD) (human, UniProt P16070 21-220); experiment: ECL Multispot (MSD) assay; antigen spotted on plate, Fab in solution;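 note: fab bound 1 h at 20 °C, detected by TAG-labelled antibody electrochemiluminescence, signal relative to each well's blank, ratio of 4 or more marks a hit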
T18 construct: Bought reagent

[27] = target: T19, rHuman IGF-1 sR, CF (R&D Systems Cat#391-GR) (human, UniProt P08069 31-932); experiment: as above
T19 construct: Bought soluble receptor; the column head 'IGF-1' means IGF-1 sR; also called insulin-like growth factor-1 soluble receptor

[28] = target: T20, rHuman ErbB2/Fc Chimera, CF (R&D Systems Cat#1129-ER) (human, UniProt P04626 23-652); experiment: as above
T20 construct: Bought reagent; also called human epidermal growth factor 2 receptor

[29] = target: T21, Recombinant Human DLL4 (R&D Systems Cat#1506-D4/CF) (human, UniProt Q9NR61 27-524); experiment: as above
T21 construct: Bought recombinant protein; also called delta-like protein 4; rHuman DLL4

[30] = target: T22, rHuman P-Cadherin/Fc Chimera, CF (R&D Systems Cat#861-PC) (human, UniProt P22223 108-654); experiment: as above
T22 construct: Bought reagent

[31] = target: T23, rHuman EGF R/Fc Chimera, CF (R&D Systems Cat#344-ER) (human, UniProt P00533 25-645); experiment: as above
T23 construct: Bought reagent; also called epidermal growth factor receptor

[32] = target: T24, rHuman Erythropoietin R/Fc Chimera, CF (R&D Systems Cat#963-ER) (human, UniProt P19235 25-250); experiment: as above
T24 construct: Bought reagent; also called EPO R; Epo R/Fc
T24 sequence (looked up): T5 sequence (looked up)

[33] = target: T25, rHuman HGF R/c-MET/Fc Chimera, CF (R&D Systems Cat#358-MT/CF) (human, UniProt P08581 25-932); experiment: as above
T25 construct: Bought reagent; also called HGF R/Fc; hepatocyte growth factor receptor

[34] = target: T26, rHuman Notch-1/Fc Chimera, CF (R&D Systems Cat#3647-TK) (human, UniProt P46531 19-526); experiment: as above
T26 construct: Bought reagent

ECL signal [1]: 573
ECL signal [2]: 616
ECL signal [3]: 646
ECL signal [4]: 638
ECL signal [5]: 845
ECL signal [6]: 1260
ECL signal [7]: 666
ECL signal [8]: 611
ECL signal [9]: 425
ECL signal [10]: 472
ECL signal [11]: 458
ECL signal [12]: 452
ECL signal [13]: 601
ECL signal [14]: 1340
ECL signal [15]: 471
ECL signal [16]: 439
B1: Fab VH1-46_IGHD6-6*01_IGHJ1*01 S102A/S103P/S104F/H111F (APFF) & L6_IGKJ1*01 S92C (Fab, V domains shown)
VH: QVQLVQSGAEVKKPGASVKVSCKASGYTFTSYYMHWVRQAPGQGLEWMGIINPSGGSTSYAQKFQGRVTMTRDTSTSTVYMELSSLRSEDTAVYYCAREEYAPFSAEYFQFWGQGTLVTVSS
VL: EIVLTQSPATLSLSPGERATLSCRASQSVSSYLAWYQQKPGQAPRLLIYDASNRATGIPARFSGSGSGTDFTLTISSLEPEDFAVYYCQQRCNWPPWTFGQGTKVEIKR
notes: Fab; also called APFF / S92C

ECL signal [17]: 91400
ECL signal [18]: 413
ECL signal [19]: 402
ECL signal [20]: 287
ECL signal [21]: 377
ECL signal [22]: 541
ECL signal [23]: 323
ECL signal [24]: 543
ECL signal [25]: 420
B2: Fab VH1-46_IGHD6-6*01_IGHJ1*01 S102A/S103P/S104F/H111F (APFF) & L6_IGKJ1*01 S92G (Fab, V domains shown)
VH: B1 VH
VL: B1 VL with C92G
notes: Tested as a Fab made in E. coli; also called APFF / S92G; H:APFF & L6_IGKJ1*01 S92G

ECL signal [26]: 162
ECL signal [27]: 175
ECL signal [28]: 154
ECL signal [29]: 1030
ECL signal [30]: 51
ECL signal [31]: 208
ECL signal [32]: 230
ECL signal [33]: 222
ECL signal [34]: 137
B3: Fab VH1-46_IGHD6-6*01_IGHJ1*01 S102A/S103P/S104F (APF) & L6_IGKJ1*01 Y32S (Fab, V domains shown)
VH: B1 VH with F111H
VL: B1 VL with Y32S, C92S
notes: Fab format as for the parent (CH1 with His6/Flag tags, kappa CL); also called APF / Y32S
